Source: paper PMC12416549 (2024)

Molecular target: T1, TNFR1 (Homo sapiens, UniProt P19438)
T1 chain: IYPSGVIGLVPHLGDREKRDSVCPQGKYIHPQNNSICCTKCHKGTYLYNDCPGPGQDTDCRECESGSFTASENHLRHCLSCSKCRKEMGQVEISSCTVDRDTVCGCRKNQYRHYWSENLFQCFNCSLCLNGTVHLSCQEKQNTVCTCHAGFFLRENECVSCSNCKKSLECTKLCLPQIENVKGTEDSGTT
Assay: yeast display SC50

B1: A28W (designed binder)
chain: MTLQELLREEALRRAEAEAFRYALELLWEKFPEQKEYLLDLAEEIESQIRSLSGVDVEDVRKFLDKEWAWVKELLAEHPAELAEVEAARAARLAELRAEVEAKVAA
apparent Kd (screen): 10.4 nM

B2: V71S (designed binder)
chain: MTLQELLREEALRRAEAEAFRYALELLAEKFPEQKEYLLDLAEEIESQIRSLSGVDVEDVRKFLDKEWAWSKELLAEHPAELAEVEAARAARLAELRAEVEAKVAA
apparent Kd (screen): 2.48 nM

B3: R92A (designed binder)
chain: MTLQELLREEALRRAEAEAFRYALELLAEKFPEQKEYLLDLAEEIESQIRSLSGVDVEDVRKFLDKEWAWVKELLAEHPAELAEVEAARAAALAELRAEVEAKVAA
apparent Kd (screen): 0.956 nM

B4: M1T (designed binder)
chain: TTLQELLREEALRRAEAEAFRYALELLAEKFPEQKEYLLDLAEEIESQIRSLSGVDVEDVRKFLDKEWAWVKELLAEHPAELAEVEAARAARLAELRAEVEAKVAA
apparent Kd (screen): 0.49 nM

B5: A83V (designed binder)
chain: MTLQELLREEALRRAEAEAFRYALELLAEKFPEQKEYLLDLAEEIESQIRSLSGVDVEDVRKFLDKEWAWVKELLAEHPAELVEVEAARAARLAELRAEVEAKVAA
apparent Kd (screen): 0.718 nM

B6: Y37H (designed binder)
chain: MTLQELLREEALRRAEAEAFRYALELLAEKFPEQKEHLLDLAEEIESQIRSLSGVDVEDVRKFLDKEWAWVKELLAEHPAELAEVEAARAARLAELRAEVEAKVAA
apparent Kd (screen): 11.4 nM

B7: S51K (designed binder)
chain: MTLQELLREEALRRAEAEAFRYALELLAEKFPEQKEYLLDLAEEIESQIRKLSGVDVEDVRKFLDKEWAWVKELLAEHPAELAEVEAARAARLAELRAEVEAKVAA
apparent Kd (screen): 1.27 nM

B8: R97L (designed binder)
chain: MTLQELLREEALRRAEAEAFRYALELLAEKFPEQKEYLLDLAEEIESQIRSLSGVDVEDVRKFLDKEWAWVKELLAEHPAELAEVEAARAARLAELLAEVEAKVAA
apparent Kd (screen): 0.653 nM

B9: A80W (designed binder)
chain: MTLQELLREEALRRAEAEAFRYALELLAEKFPEQKEYLLDLAEEIESQIRSLSGVDVEDVRKFLDKEWAWVKELLAEHPWELAEVEAARAARLAELRAEVEAKVAA
apparent Kd (screen): 0.446 nM

B10: E9C (designed binder)
chain: MTLQELLRCEALRRAEAEAFRYALELLAEKFPEQKEYLLDLAEEIESQIRSLSGVDVEDVRKFLDKEWAWVKELLAEHPAELAEVEAARAARLAELRAEVEAKVAA
apparent Kd (screen): 0.405 nM

B11: E67K (designed binder)
chain: MTLQELLREEALRRAEAEAFRYALELLAEKFPEQKEYLLDLAEEIESQIRSLSGVDVEDVRKFLDKKWAWVKELLAEHPAELAEVEAARAARLAELRAEVEAKVAA
apparent Kd (screen): 2.73 nM

B12: Q4R (designed binder)
chain: MTLRELLREEALRRAEAEAFRYALELLAEKFPEQKEYLLDLAEEIESQIRSLSGVDVEDVRKFLDKEWAWVKELLAEHPAELAEVEAARAARLAELRAEVEAKVAA
apparent Kd (screen): 0.49 nM

B13: A90F (designed binder)
chain: MTLQELLREEALRRAEAEAFRYALELLAEKFPEQKEYLLDLAEEIESQIRSLSGVDVEDVRKFLDKEWAWVKELLAEHPAELAEVEAARFARLAELRAEVEAKVAA
apparent Kd (screen): 0.869 nM

B14: S51T (designed binder)
chain: MTLQELLREEALRRAEAEAFRYALELLAEKFPEQKEYLLDLAEEIESQIRTLSGVDVEDVRKFLDKEWAWVKELLAEHPAELAEVEAARAARLAELRAEVEAKVAA
apparent Kd (screen): 0.405 nM

B15: A19C (designed binder)
chain: MTLQELLREEALRRAEAECFRYALELLAEKFPEQKEYLLDLAEEIESQIRSLSGVDVEDVRKFLDKEWAWVKELLAEHPAELAEVEAARAARLAELRAEVEAKVAA
apparent Kd (screen): 0.49 nM

B16: R61T (designed binder)
chain: MTLQELLREEALRRAEAEAFRYALELLAEKFPEQKEYLLDLAEEIESQIRSLSGVDVEDVTKFLDKEWAWVKELLAEHPAELAEVEAARAARLAELRAEVEAKVAA
apparent Kd (screen): 0.593 nM

B17: S53R (designed binder)
chain: MTLQELLREEALRRAEAEAFRYALELLAEKFPEQKEYLLDLAEEIESQIRSLRGVDVEDVRKFLDKEWAWVKELLAEHPAELAEVEAARAARLAELRAEVEAKVAA
apparent Kd (screen): 2.05 nM

B18: A87V (designed binder)
chain: MTLQELLREEALRRAEAEAFRYALELLAEKFPEQKEYLLDLAEEIESQIRSLSGVDVEDVRKFLDKEWAWVKELLAEHPAELAEVEVARAARLAELRAEVEAKVAA
apparent Kd (screen): 0.539 nM

B19: G54C (designed binder)
chain: MTLQELLREEALRRAEAEAFRYALELLAEKFPEQKEYLLDLAEEIESQIRSLSCVDVEDVRKFLDKEWAWVKELLAEHPAELAEVEAARAARLAELRAEVEAKVAA
apparent Kd (screen): 24.4 nM

B20: L64M (designed binder)
chain: MTLQELLREEALRRAEAEAFRYALELLAEKFPEQKEYLLDLAEEIESQIRSLSGVDVEDVRKFMDKEWAWVKELLAEHPAELAEVEAARAARLAELRAEVEAKVAA
apparent Kd (screen): 0.653 nM

B21: E43V (designed binder)
chain: MTLQELLREEALRRAEAEAFRYALELLAEKFPEQKEYLLDLAVEIESQIRSLSGVDVEDVRKFLDKEWAWVKELLAEHPAELAEVEAARAARLAELRAEVEAKVAA
apparent Kd (screen): 0.539 nM

B22: E36C (designed binder)
chain: MTLQELLREEALRRAEAEAFRYALELLAEKFPEQKCYLLDLAEEIESQIRSLSGVDVEDVRKFLDKEWAWVKELLAEHPAELAEVEAARAARLAELRAEVEAKVAA
apparent Kd (screen): 0.539 nM

B23: E86R (designed binder)
chain: MTLQELLREEALRRAEAEAFRYALELLAEKFPEQKEYLLDLAEEIESQIRSLSGVDVEDVRKFLDKEWAWVKELLAEHPAELAEVRAARAARLAELRAEVEAKVAA
apparent Kd (screen): 1.27 nM

B24: G54S (designed binder)
chain: MTLQELLREEALRRAEAEAFRYALELLAEKFPEQKEYLLDLAEEIESQIRSLSSVDVEDVRKFLDKEWAWVKELLAEHPAELAEVEAARAARLAELRAEVEAKVAA
apparent Kd (screen): 0.956 nM

B25: S51P (designed binder)
chain: MTLQELLREEALRRAEAEAFRYALELLAEKFPEQKEYLLDLAEEIESQIRPLSGVDVEDVRKFLDKEWAWVKELLAEHPAELAEVEAARAARLAELRAEVEAKVAA
apparent Kd (screen): 0.593 nM

B26: L74H (designed binder)
chain: MTLQELLREEALRRAEAEAFRYALELLAEKFPEQKEYLLDLAEEIESQIRSLSGVDVEDVRKFLDKEWAWVKEHLAEHPAELAEVEAARAARLAELRAEVEAKVAA
apparent Kd (screen): 0.79 nM

B27: R50F (designed binder)
chain: MTLQELLREEALRRAEAEAFRYALELLAEKFPEQKEYLLDLAEEIESQIFSLSGVDVEDVRKFLDKEWAWVKELLAEHPAELAEVEAARAARLAELRAEVEAKVAA
apparent Kd (screen): 1.16 nM

B28: K72R (designed binder)
chain: MTLQELLREEALRRAEAEAFRYALELLAEKFPEQKEYLLDLAEEIESQIRSLSGVDVEDVRKFLDKEWAWVRELLAEHPAELAEVEAARAARLAELRAEVEAKVAA
apparent Kd (screen): 0.869 nM

B29: F31L (designed binder)
chain: MTLQELLREEALRRAEAEAFRYALELLAEKLPEQKEYLLDLAEEIESQIRSLSGVDVEDVRKFLDKEWAWVKELLAEHPAELAEVEAARAARLAELRAEVEAKVAA
apparent Kd (screen): 0.869 nM

B30: A76P (designed binder)
chain: MTLQELLREEALRRAEAEAFRYALELLAEKFPEQKEYLLDLAEEIESQIRSLSGVDVEDVRKFLDKEWAWVKELLPEHPAELAEVEAARAARLAELRAEVEAKVAA
apparent Kd (screen): 2.05 nM

B31: E95D (designed binder)
chain: MTLQELLREEALRRAEAEAFRYALELLAEKFPEQKEYLLDLAEEIESQIRSLSGVDVEDVRKFLDKEWAWVKELLAEHPAELAEVEAARAARLADLRAEVEAKVAA
apparent Kd (screen): 0.593 nM

B32: A80V (designed binder)
chain: MTLQELLREEALRRAEAEAFRYALELLAEKFPEQKEYLLDLAEEIESQIRSLSGVDVEDVRKFLDKEWAWVKELLAEHPVELAEVEAARAARLAELRAEVEAKVAA
apparent Kd (screen): 0.869 nM

B33: E81C (designed binder)
chain: MTLQELLREEALRRAEAEAFRYALELLAEKFPEQKEYLLDLAEEIESQIRSLSGVDVEDVRKFLDKEWAWVKELLAEHPACLAEVEAARAARLAELRAEVEAKVAA
apparent Kd (screen): 0.79 nM

B34: A105W (designed binder)
chain: MTLQELLREEALRRAEAEAFRYALELLAEKFPEQKEYLLDLAEEIESQIRSLSGVDVEDVRKFLDKEWAWVKELLAEHPAELAEVEAARAARLAELRAEVEAKVWA
apparent Kd (screen): 0.869 nM
